Reference: patent US20200123214A1 (published 2020)

Assays:
[1] = target: T1, recombinant human CSF1 protein (human) (UniProt P09603); experiment: SPR, BioRad ProteOn XPR 360
T1 sequence (looked up): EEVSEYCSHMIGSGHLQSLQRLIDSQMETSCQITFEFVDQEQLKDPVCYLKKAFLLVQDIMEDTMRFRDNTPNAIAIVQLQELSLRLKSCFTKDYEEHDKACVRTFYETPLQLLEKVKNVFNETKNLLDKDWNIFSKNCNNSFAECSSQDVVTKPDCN

[2] = target: T2, murine CD40 overexpressed on CHO-K1 cells (CHOK1/CD40) (murine, UniProt P27512 20-289); experiment: flow cytometry on CHOK1/CD40 cells
T2 construct: whole, on cells; also called mCD40
T2 sequence (looked up): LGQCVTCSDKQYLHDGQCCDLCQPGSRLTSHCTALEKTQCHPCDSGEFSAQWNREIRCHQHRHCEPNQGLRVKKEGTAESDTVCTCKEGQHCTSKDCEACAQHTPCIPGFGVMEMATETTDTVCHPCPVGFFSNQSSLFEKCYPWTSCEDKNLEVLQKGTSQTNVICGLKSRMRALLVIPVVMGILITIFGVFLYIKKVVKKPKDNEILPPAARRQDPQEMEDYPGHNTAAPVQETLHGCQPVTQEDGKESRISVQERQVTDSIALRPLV
Procedure: For cell binding assays, immortalized cell lines were engineered to stably express CD40 (CHOK1/CD40). Increasing concentrations of the murine CSF1R-Fc-CD40L chimeric protein were incubated with the over-expressing (CHOK1/CD40) cell line for 2 hours. Cells were collected, washed, and stained with antibodies for the detection of chimeric protein binding by flow cytometry.
As a negative control, there was no detectable binding to the parental (non-CD40 expressing) CHOK1 cell line.

Chain of CSF1R-Fc (Fc fusion) (chain): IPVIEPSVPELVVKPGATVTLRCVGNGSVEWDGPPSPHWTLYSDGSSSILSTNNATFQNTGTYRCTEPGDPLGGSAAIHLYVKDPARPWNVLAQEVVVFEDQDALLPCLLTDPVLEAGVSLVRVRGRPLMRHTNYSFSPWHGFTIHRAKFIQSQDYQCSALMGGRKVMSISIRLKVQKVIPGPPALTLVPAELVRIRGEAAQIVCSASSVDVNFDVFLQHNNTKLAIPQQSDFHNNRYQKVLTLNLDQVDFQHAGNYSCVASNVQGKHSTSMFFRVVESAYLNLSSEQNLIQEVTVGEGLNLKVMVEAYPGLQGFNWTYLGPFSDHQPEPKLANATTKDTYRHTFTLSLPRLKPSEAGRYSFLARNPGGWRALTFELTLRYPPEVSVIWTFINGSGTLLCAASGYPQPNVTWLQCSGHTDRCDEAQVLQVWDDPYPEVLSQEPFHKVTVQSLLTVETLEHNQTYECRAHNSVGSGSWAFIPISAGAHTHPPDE

| Molecule | Kd [1] | koff [1] | kon [1] | EC50 [2] |
| --- | --- | --- | --- | --- |
| CSF1R-Fc (Fc fusion) | 0.000275 µM | 0.000335 s⁻¹ | 1.22e+06 M⁻¹ s⁻¹ |  |
| murine CSF1R-Fc-CD40L chimeric protein (Fc fusion, UniProt P09581 20-515, looked up, constructed 'as described above in the Detailed Description and in U.S. 62/464,002'; also called mCSF1R-Fc-CD40L; mCD115-Fc-CD40L; not shown: Fc linker of the murine chimera) APVIEPSGPELVVEPGETVTLRCVSNGSVEWDGPISPYWTLDPESPGSTLTTRNATFKNTGTYRCTELEDPMAGSTTIHLYVKDPAHSWNLLAQEVTVVEGQEAVLPCLITDPALKDSVSLMREGGRQVLRKTVYFFSPWRGFIIRKAKVLDSNTYVCKTMVNGRESTSTGIWLKVNRVHPEPPQIKLEPSKLVRIRGEAAQIVCSATNAEVGFNVILKRGDTKLEIPLNSDFQDNYYKKVRALSLNAVDFQDAGIYSCVASNDVGTRTATMNFQVVESAYLNLTSEQSLLQEVSVGDSLILTVHADAYPSIQHYNWTYLGPFFEDQRKLEFITQRAIYRYTFKLFLNRVKASEAGQYFLMAQNKAGWNNLTFELTLRYPPEVSVTWMPVNGSDVLFCDVSGYPQPSVTWMECRGHTDRCDEAQALQVWNDTHPEVLSQKPFDKVIIQSQLPIGTLKHNMTYFCKTHNSVGNSSQYFRAVSLGQSKQLPDESLFTPHRRLDKVEEEVNLHEDFVFIKKLKRCNKGEGSLSLLNCEEMRRQFEDLVKDITLNKEEKKENSFEMQRGDEDPQIAAHVVSEANSNAASVLQWAKKGYYTMKSNLVMLENGKQLTVKREGLYYVYTQVTFCSNREPSSQRPFIVGLWLKPSSGSERILLKAANTHSSSQLCEQQSVHLGGVFELQAGASVFVNVTEASQVIHRVGFSSFGLLKL |  |  |  | 0.0911 µM |
